Experimental data as given in paper PMC12412103, “An Amyloidogenic Fragment of the Spike Protein from SARS-CoV‑2 Virus Stimulates the Aggregation and Toxicity of Parkinson’s Disease Protein Alpha-Synuclein” (ACS Chemical Neuroscience, 2025).
Where “and” joins values, the source holds several entries; their conditions need not be identical. Equal entries are not always repeated.

How the values were obtained:
[1] = molecular target: the molecule itself; assay: dynamic light scattering
[2] = molecular target: α-synuclein (αSyn), wild type (human, UniProt P37840 1-140); assay: ITC; conditions: both partners purified

B1: Spike 194–203 (S194), fibrillogenic fragment of the Spike protein of SARS-CoV-2 (peptide)
peptide: FKNIDGYFKI
notes: also called mS194 (monomer); fS194 (fibrils)
- binding result [1]: binds
- dH [2]: -200 kcal/mol and -150 kcal/mol
